From article PMC4197441, “Phosphoinositide 3-kinase p85beta regulates invadopodium formation” (Biology Open, 2014) come the findings set out here.

This assay deals with T1, focal adhesion kinase (mouse (endogenous in NIH3T3), UniProt P34152 1-1052).
T1 construct: focal adhesion kinase (FAK), endogenous in NIH3T3 fibroblasts, immunoprecipitated with anti-FAK Ab (BD Bioscience); also called FAK; Ptk2; source: endogenous, NIH3T3 cell extract
The experiment in a line: co-IP; NIH3T3 cell extracts (500 µg, TX-100 lysis buffer) immunoprecipitated with anti-FAK Ab, WB with anti-HA Ab; cells without serum 16 h, then 10% serum (in suspension), FN, or FN plus serum for 20 or 60 min. Conditions: partners not purified.

T1 sequence (P34152 whole entry): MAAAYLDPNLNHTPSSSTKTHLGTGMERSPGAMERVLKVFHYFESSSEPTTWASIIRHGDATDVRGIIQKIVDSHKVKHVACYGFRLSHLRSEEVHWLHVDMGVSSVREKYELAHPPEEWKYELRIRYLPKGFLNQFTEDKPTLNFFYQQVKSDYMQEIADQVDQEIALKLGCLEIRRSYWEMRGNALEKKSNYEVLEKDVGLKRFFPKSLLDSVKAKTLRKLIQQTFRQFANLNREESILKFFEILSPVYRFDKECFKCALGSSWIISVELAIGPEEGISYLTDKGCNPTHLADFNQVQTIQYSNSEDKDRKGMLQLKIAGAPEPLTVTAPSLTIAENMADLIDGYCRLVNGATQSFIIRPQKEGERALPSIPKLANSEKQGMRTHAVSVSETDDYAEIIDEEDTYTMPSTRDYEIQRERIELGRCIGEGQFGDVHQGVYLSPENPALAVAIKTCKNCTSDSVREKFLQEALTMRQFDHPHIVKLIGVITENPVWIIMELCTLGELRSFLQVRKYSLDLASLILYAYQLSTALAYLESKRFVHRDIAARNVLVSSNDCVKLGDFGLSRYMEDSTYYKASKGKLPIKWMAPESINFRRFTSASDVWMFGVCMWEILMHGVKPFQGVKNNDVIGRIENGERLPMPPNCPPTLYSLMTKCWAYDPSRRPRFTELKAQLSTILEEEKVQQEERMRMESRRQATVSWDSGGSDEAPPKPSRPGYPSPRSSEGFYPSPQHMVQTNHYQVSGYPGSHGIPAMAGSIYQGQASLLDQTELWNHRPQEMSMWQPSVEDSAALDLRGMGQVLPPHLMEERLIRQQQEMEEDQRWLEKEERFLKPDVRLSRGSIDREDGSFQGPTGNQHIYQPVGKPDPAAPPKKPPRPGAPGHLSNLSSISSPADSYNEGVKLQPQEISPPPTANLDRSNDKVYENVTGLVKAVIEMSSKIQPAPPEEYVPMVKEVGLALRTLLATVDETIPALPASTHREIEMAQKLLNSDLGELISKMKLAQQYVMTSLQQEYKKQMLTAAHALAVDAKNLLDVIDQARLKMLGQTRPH

B1: recombinant HA-tagged p85β (regulatory subunit of phosphoinositide 3-kinase) (natural protein)
chain: not shown
notes: p85β regulatory subunit of PI3K, murine cDNA (from pT7/T3-U19) subcloned into pSG5; the p85β ATG codon was replaced with a proline residue and the ATG of the HA tag kept; The only change is the first methionine to proline at the junction with the N-terminal HA tag; also called rHAp85β; HA-p85β; source: NIH3T3, transfected (pSG5), in cell extract; not shown: HA, N-terminal, kept
Take B1: the “fold amount co-precipitated with FAK relative to rHAp85α” value came out at 5 fold.
